Measurements reported in publication PMC4735842.

Molecular target: Cereolysin O (CLO) of Bacillus cereus ATCC 11778 (BC1) (Bacillus cereus ATCC 11778 (endogenous in the culture))
Assay: SDS-PAGE with Western blot; retentates of BC1 microaerobic culture supernatants (grown with or without 1 g/L BSA, 3 kDa cut-off filter); boiled 5 min in Laemmli buffer with 50 mM DTT; 4-20% Tris-Glycine gel; blot with rabbit anti-streptolysin O antibody

Substance: Cereolysin O (CLO) of Bacillus cereus ATCC 11778 (BC1) (natural protein)
- stoichiometry N: 2
